Data reported in patent publication US20220135682A1.

Assays:
Human ICOS (human) [1] = biological target: Human ICOS (human) (UniProt Q9Y6W8); assay: in vivo target engagement, flow cytometry on human peripheral blood CD4+ T cells, average of three subjects after first i.v. dose of 0.1 mg/kg
Human ICOS (human) [2] = biological target: Human ICOS (human) (UniProt Q9Y6W8); assay: in vivo target engagement, flow cytometry on human peripheral blood CD4+ T cells, 0.1 mg/kg, Day 42
Human ICOS (human) [3] = biological target: Human ICOS (human) (UniProt Q9Y6W8); assay: in vivo target engagement, flow cytometry on human peripheral blood CD4+ T cells, 0.1 mg/kg, Day 42, average of three subjects

Human ICOS (human), sequence (Q9Y6W8 21-199): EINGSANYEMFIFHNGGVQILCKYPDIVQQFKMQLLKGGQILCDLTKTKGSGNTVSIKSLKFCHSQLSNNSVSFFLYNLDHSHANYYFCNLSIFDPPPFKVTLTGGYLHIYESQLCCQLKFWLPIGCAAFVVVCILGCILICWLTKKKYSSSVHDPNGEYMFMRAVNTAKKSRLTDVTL

JTX-2011 (antibody) showed a target engagement (Human ICOS (human) [1]) of 100%, a target engagement (Human ICOS (human) [2]) of under 40% and a target engagement (Human ICOS (human) [3]) of 10%.
